From US20230332166A1, “FORMATE-INDUCIBLE PROMOTERS AND METHODS OF USE THEREOF” (Imperial College Innovations Ltd, priority 2020, published 2023)

Test system: Y. lipolytica JMY2900
Test: qPCR of putative FDH gene transcription upon induction with sodium formate
Type: cell-based, Yarrowia lipolytica
Conditions: YNB with 0.5% sodium formate, 6 h, 28° C., vs absence of formate; qPCR normalised to actin
Method: FIG. 3: Transcription levels of the FDH genes of Yarrowia lipolytica W29 measured by qPCR, normalised to actin (ACT1) expression. Yarrowia lipolytica was grown in YNB supplemented with 1% glucose and 0.5% yeast extract at 15 h at 28° C., before being washed and transferred into YNB with 0.5% of sodium formate for induction and grown for 6 h.
The inducibility of the putative FDH genes with formate was then tested by qPCR. YALI0E14256g1_1 and the nine putative FDH with the highest % identity to YALI0E14256g1_1 were selected for testing. Y. lipolytica JMY2900 was cultured in YNB media supplemented with 1% glucose and 0.5% yeast extract for 15 h at 28° C. Cells were washed with distilled water and cultured in fresh liquid YNB media supplemented with 0.5% sodium formate at 28° C. with agitation at 160 rpm, before being harvested at 6 h post-inoculated. Cells were frozen in liquid nitrogen and stored at −80° C. RNA was subsequently extracted using the RNeasy Mini Kit (Qiagen), and 2 μg was treated with DNAse (Ambion; Life Science Technologies, Saint-Aubain, France). cDNA was synthesised using the Maxima First Strand cDNA synthesis kit (Thermo Fischer Scientific, Villebon sur Yvette, France). qPCR was then performed using the SYBRgreen mastermix (Thermo Fischer Scientific) with gene-specific primers designed using Primer3 software. Relative expression levels were calculated using ΔCT and ΔΔCT methods. Expression levels were normalised to actin.

Molecule	Fold increase on induction (fold change expression of putative FDH genes upon induction with sodium formate) [fold]
Yali0E15840: putative Y. lipolytica FDH gene; promoter region SEQ ID NO: 10 (1 Kb) and 26 (1.5 Kb) (nucleic acid, listed as Yarrowia lipolytica, YALI0E15840g) DNA: ATGAAGGTCCTTCTTGTTCTTTACGATGCTGGCTCTCACGCTGCTGACGAGCCCAAGCTCCTTGGATGCACCGAAAACGAGCTCGGTATCCGAGACTGGCTCGAGTCCCAGGGCCACACGCTTGTCACCACCTCTTCCAAGGATGGCGCCGACTCTGTGCTCGACAAGGAAATTGTTGACGCCGACGTTGTCATCACCACCCCCTTCCACCCCGGCTACATCAACAAGGAGCGAATCGACAAGGCCAAGAAGCTCAAGATCTGCATCACCGCCGGAGTCGGCTCGGACCACGTTGATCTCGATGCTGCCAACGCTCGAGATATCGCTGTTCTGGAGGTCACTGGTTCTAATGTCCAATCCGTCGCTGAGCATGTTGTCATGACTATGCTCGTTCTGGTCCGAAACTTTGTCCCCGCCCACGAGCAGATCATTTCCGGCGGGTGGGACGTTGCGGCGGTCGCCAAGGACTCCTACGATCTAGAGGGTAAGGTCATCGGTACCGTGGGAGGCGGCCGAATCGGTCAGCGTGTCCTCAAGCGATGCAAGCCTTTCGACCCCATGGAAATGCTCTACTACGATTACCAGCCCATGCCTGCCGACGTCGAAGAGGAGATTGGCTGCCGACGAGTCGAGTCGCTCGAGCAAATGCTTTCTCTGTGTGATGTTGTCACTATCAACTGCCCTCTGCACGCCTCCACCAAGGGTCTCTTCAACAAGGAGCTCATCTCCCACATGAAGGATGGAGCCTGGCTCGTCAACACTGCTCGAGGAGCCATCTGCGTCACCGAGGACATTGTCGAGGCCCTAGAGTCCGGCAAAATCCGAGGATACGGAGGAGACGTCTGGTTCCCCCAGCCTGCCCCCAAGGACCACCCCTGGAGAACCATGCGAAACAATTACGGTGGTGGAAACGCCATGACTCCCCACATCTCCGGAACCTCCATTGATGCCCAGGGCCGATACGCTGAGGGTACCAAGAAGATCCTCGAGGTCTTTTTCTCGGGCAAGCAGGATTATCGACCCCAGGATATCATCTGTATCAACGGCCATTATGGTACCAAGGCCTACGGTGACGACAAAGAGCATAAGGAGCATCAGCTCAAGTAA	5.7
Yali0F13937: putative Y. lipolytica FDH gene; promoter region SEQ ID NO: 6 (1 Kb) and 22 (1.5 Kb) (nucleic acid, listed as Yarrowia lipolytica, YALI0F13937g) DNA: ATGAAGGTCCTTCTTATTCTCTATGATGCCGGCTCTCACGCTAAGGATGAGCCCAAGCTCCTTGGATGCACCGAGAACGAGCTCGGTATCCGAGACTGGCTCGAGTCTCAGGGCCATACTCTCGTTACCACCTCTTCCAAGGATGGCGCCGACTCTGTGCTTGACAAGGAGATTGTTGACGCCGATGTAGTCATCACTACCCCCTTCCACCCTGGCTACATCAACAAGGAGCGAATCGACAAGGCCAAGAAGCTCAAGATCTGCATCACTGCCGGTGTGGGCTCGGACCACGTTGATCTCGATGCTGCCAACGCTCGAGATATCGCTGTTCTGGAAGTCACTGGTTCTAATGTCCAGTCCGTCGCTGAGCATGTTGTCATGACTATGCTCGTTCTGGTCCGAAACTTTGTCCCCGCCCACGAGCAAATCATCTCTGGCGGCTGGGATGTTGCTGCTGTCGCCAAGGACTCCTACGATCTCGAGGGTAAGGTCATCGGTACCGTTGGTGGCGGCCGAATCGGCCAGCGTGTCCTCAAGCGATGCAAGCCCTTCGACCCCATGGAAATGCTCTACTACGACTACCAGCCCATGCCTGCCGACGTCGAAAAGGAGATTGGTTGCCGACGAGTTGAGTCTCTGGAGGAGATGCTCTCTCTGTGTGATGTCGTGACCATCAATTGCCCTCTGCACGCCTCCACCAAGGGCCTCTTCAACAAGGAGCTCATCTCGCACATGAAGAATGGTGCTTGGCTCGTCAACACTGCTCGAGGAGCCATCTGCGTTACCGAGGACATTGTCGAGGCACTCGAGTCCGGCAAGATGCGAGGATACGGTGGTGATGTCTGGTTCCCCCAGCCTGCCCCCAAGGACCATCCCTGGAGAACCATGCGAAACAAGTACGGTGGTGGAAACGCCATGACTCCTCATATCTCTGGCACTTCCATCGATGCCCAGGGCCGATACGCCGAGGGAACAAAGAAGATCCTCGAGGTCTTCTTCTCTGGCAAGCAGGATTACCGACCCCAGGACATTATCTGCATCAACGGTCACTACGGTACCAAGGCTTACGGTGACGACAAGGAGCACAAGGAGCACCAGCTTAAGTAAACATTTTTATAGTAACATCTCATTTTGT	38.6
Yali0B19976: putative Y. lipolytica FDH gene; promoter region SEQ ID NO: 9 (1 Kb) and 25 (1.5 Kb) (nucleic acid, listed as Yarrowia lipolytica, YALI0B19976g) DNA: ATGAAGGTCCTTCTTGTTCTCTACGACGCCGGCTCCCACGCCAAGGATGAGCCCAAGCTACTTGGATGCACTGAAAACGAGCTCGGTATCCGAGACTGGCTCGAGTCCCAGGGCCATACCCTGGTAACTACCTCTTCTAAGGATGGCGCCGACTCCGTTCTCGACAAGGAGATTGTTGATGCCGATGTTGTCATCACTACCCCCTTCCATCCCGGTTACATCAACAAGGAGAGAATTGACAAGGCCAAGAAGCTCAAGATCTGTATCACTGCCGGTGTTGGTTCTGACCATGTCGATCTAGATGCCGCCAACGCCCGAGACATTGCTGTCCTTGAAGTCACTGGCTCCAACGTTCAGTCGGTCGCTGAGCATGTTGTCATGACCATGCTTGTTCTGGTCAGAAACTTCGTCCCTGCTCATGAGCAGATCATTTCTGGTGGCTGGGACGTTGCCGCTGTCGCCAAGGACTCTTACGACCTAGAGGGTAAGGTCATTGGTACAGTTGGAGGTGGGCGAATCGGTCAGCGAGTCCTCAAGCGATGCAAGCCCTTCGACCCCATGGAGATGCTCTACTACGACTACCAGCCCATGCCCGCTGATGTCGAGAAGGAGATTGGCTGTCGACGAGTGGAGTCTCTCGAGGAGATGCTCTCTCTCTGTGACGTTGTCACCATCAACTGTCCTCTGCACGCCTCCACCAAGGGCCTCTTCAACAAGAAGCTCATCTCCCACATGAAGGATGGCGCCTGGCTCGTCAACACCGCTCGAGGAGCTATTTGTGTCACTGAGGACATTGTTGAGGCTCTCGAGTCCGGAAAGATTCGAGGCTACGGTGGTGATGTCTGGTTCCCTCAGCCCGCCCCAAAGGACCACCCCTGGAGAACAATGCGAAACAAGTACGGTGGAGGAAACGCCATGACCCCTCATATCTCTGGTACTTCTATTGATGCCCAAGGCCGATACGCTGAGGGCACCAAGAAAATCCTTGAGGTCTTCTTCTCAGGAAAGCAAGACTACCGACCCCAGGATATCATCTGTATCAACGGTCACTACGGTACCAAGGCTTACGGTGACGACAAGGAGCACAAGGAGCACAAGGAGCACGAGGTCAAATAAGCTATCAGCTCTATAGTACTGTACAGTAGGTACAATAGGATCTTGATATTACAGT	11.4
Yali0B22506: putative Y. lipolytica FDH gene; promoter region SEQ ID NO: 4 (1 Kb) and 20 (1.5 Kb) (nucleic acid, listed as Yarrowia lipolytica, YALI0B22506g) DNA: ATGAAGATTCTCCTTATCCTTTACGACGCCGGCTCCCACGCTGCTGACGAACCCAAGCTGCTAGGTTGCACCGAGAACGAGCTCGGCATCCGATCCTGGCTCGAGTCCCAGGGCCATACCCTGGTCACCACCTCTTCCAAGGAGGGTGCTGACTCTGTTCTCGACAAGGAGATTGTTGATGCCGATGTTGTCATCACCACTCCCTTCCACCCCGGCTACATCACCCGAGAGCGAATTGCCAAGGCCAAGAACCTCAAGATCTGTGTCACTGCCGGTGTTGGCTCTGACCACGTTGATCTTGCTGCCGCCAACGAGAGAAACATTGCCGTGCTCGAGGTCACTGGTTCCAACGTGACTTCTGTTGCTGAGCACGTTGTCATGACCATGCTTGTTCTTGTCCGAAACTTCGTGCCTGCCAACGAGCAGGTTCGAGGCGGCGGCTGGGACGTTGCCGGTGTTGCCAAGGATTCCTACGATATTGAGGGTAAGGTCATTGGTACCGTCGGAGTCGGCCGAATCGGCAAGCGAGTGCTCCAGCGACTCAAGCCCTTCGACCCCAAGGAGCTGCTCTACTACGACTATCAGCCTCTGTCTGCTGCCGACGAGAAGGAGATTGGCGCCCGACGAGTTGAGAAGCTCGAGGACATGCTTGCCCAGTGTGATGTTGTCACCATCAACTGCCCCCTGCACGAATCCACCAAGGGTCTCTTTAACAAGGAGCTGCTGTCCCACATGAAGAAGGGCGCCTGGCTCGTCAACACCGCTCGAGGAGCCATCTGTGTAAAGGAGGACGTTGCCGCCGCTCTCAAGTCTGGTCAGCTCCGAGGCTACGGCGGAGATGTCTGGTTCCCCCAGCCTGCCCCTGCTGACCACCCCTGGAGAAAGATGGTCAACAAGTACGGTGCCGGTAACGCCATGACCCCCCACATGTCTGGAACCTCTCTGGACGCCCAGGCCCGATACGCTGCTGGTGTCAAGCAGATTCTCGACGAGTTCTTCTCCGGCCGAGAACAGTACCGACCCCAGGACATTATCTGCTACGGTGGTAACTACGGCACCAAGGCCTACGGAGACGACAAGAAGGTCGTCGACAAGAAGTAATCCGTCCAACGTTCTTCTCAGCGCACAGGTACCTATACTACTGGTAGTATCAGGTTAAACCTCTTTTAGTTTAATGATAAGATAAGATAACATACCGT	2.9
